# Experimental data: IntAct's records for PubMed 18532879
# B1: Nuclear polyadenylated RNA-binding protein NAB2 (Saccharomyces cerevisiae), P32505 (parent)
# chain: MSQEQYTENLKVIVAEKLAGIPNFNEDIKYVAEYIVLLIVNGGTVESVVDELASLFDSVSRDTLANVVQTAFFALEALQQGESAENIVSKIRMMNAQSLGQSDIAQQQQQQQQQQQPDIAQQQPQQQPQQQPQQQPQQQPQQQPQQQPQQQPQQQPQLQPLQPQLGTQNAMQTDAPATPSPISAFSGVVNAAAPPQFAPVDNSQRFTQRGGGAVGKNRRGGRGGNRGGRNNNSTRFNPLAKALGMAGESNMNFTPTKKEGRCRLFPHCPLGRSCPHAHPTKVCNEYPNCPKPPGTCEFLHPNEDEELMKEMERTREEFQKRKADLLAAKRKPVQTGIVLCKFGALCSNPSCPFGHPTPANEDAKVIDLMWCDKNLTCDNPECRKAHSSLSKIKEVKPISQKKAAPPPVEKSLEQCKFGTHCTNKRCKYRHARSHIMCREGANCTRIDCLFGHPINEDCRFGVNCKNIYCLFRHPPGRVLPEKKGAAPNSNVPTNERPFALPENAIIENAPPQTSFTHQEQDTEMN
# partner: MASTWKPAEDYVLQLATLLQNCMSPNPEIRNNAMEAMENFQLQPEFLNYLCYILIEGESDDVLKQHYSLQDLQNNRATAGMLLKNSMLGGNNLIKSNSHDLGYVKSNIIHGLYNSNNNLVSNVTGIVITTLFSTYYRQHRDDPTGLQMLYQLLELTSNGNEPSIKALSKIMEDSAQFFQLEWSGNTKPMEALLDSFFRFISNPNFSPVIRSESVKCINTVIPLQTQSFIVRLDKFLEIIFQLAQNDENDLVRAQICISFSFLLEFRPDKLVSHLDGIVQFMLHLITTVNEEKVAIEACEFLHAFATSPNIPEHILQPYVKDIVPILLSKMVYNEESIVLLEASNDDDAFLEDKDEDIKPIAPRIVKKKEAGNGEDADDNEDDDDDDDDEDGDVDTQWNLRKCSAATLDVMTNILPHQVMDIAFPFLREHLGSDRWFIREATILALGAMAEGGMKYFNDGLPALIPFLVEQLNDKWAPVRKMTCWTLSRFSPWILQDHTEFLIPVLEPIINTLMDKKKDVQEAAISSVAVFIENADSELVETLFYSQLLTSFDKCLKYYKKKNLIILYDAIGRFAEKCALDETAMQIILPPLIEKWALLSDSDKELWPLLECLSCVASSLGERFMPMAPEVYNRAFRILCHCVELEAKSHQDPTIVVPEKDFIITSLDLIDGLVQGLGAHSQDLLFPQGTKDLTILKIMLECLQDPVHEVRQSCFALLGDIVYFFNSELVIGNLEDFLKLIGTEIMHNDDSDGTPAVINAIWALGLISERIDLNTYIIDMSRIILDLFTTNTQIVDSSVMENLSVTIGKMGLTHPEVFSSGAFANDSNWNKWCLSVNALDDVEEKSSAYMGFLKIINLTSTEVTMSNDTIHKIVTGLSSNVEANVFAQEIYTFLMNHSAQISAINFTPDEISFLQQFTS
# Variants of: B1
# Settings: with imb2_yeast KAP104, P38217
row,effect of a mutation on the interaction,Variant
1,disrupting interaction strength,MSQEQYTENLKVIVAEKLAGIPNFNEDIKYVAEYIVLLIVNGGTVESVVDELASLFDSVSRDTLANVVQTAFFALEALQQGESAENIVSKIRMMNAQSLGQSDIAQQQQQQQQQQQPDIAQQQPQQQPQQQPQQQPQQQPQQQPQQQPQQQPQQQPQLQPLQPQLGTQNAMQTDAPATPSPISAFSGVVNAAAPPQFAPVDNSQRFTQRGGGAVGKNRRGGRGGNRGGRNNNSTRFNPPAKALGMAGESNMNFTPTKKEGRCRLFPHCPLGRSCPHAHPTKVCNEYPNCPKPPGTCEFLHPNEDEELMKEMERTREEFQKRKADLLAAKRKPVQTGIVLCKFGALCSNPSCPFGHPTPANEDAKVIDLMWCDKNLTCDNPECRKAHSSLSKIKEVKPISQKKAAPPPVEKSLEQCKFGTHCTNKRCKYRHARSHIMCREGANCTRIDCLFGHPINEDCRFGVNCKNIYCLFRHPPGRVLPEKKGAAPNSNVPTNERPFALPENAIIENAPPQTSFTHQEQDTEMN [L239P]
2,disrupting interaction strength,MSQEQYTENLKVIVAEKLAGIPNFNEDIKYVAEYIVLLIVNGGTVESVVDELASLFDSVSRDTLANVVQTAFFALEALQQGESAENIVSKIRMMNAQSLGQSDIAQQQQQQQQQQQPDIAQQQPQQQPQQQPQQQPQQQPQQQPQQQPQQQPQQQPQLQPLQPQLGTQNAMQTDAPATPSPISAFSGVVNAAAPPQFAPVDNSQRFTQRGGGAVGKNRRGGRGGNRGGRNNNSTRFNPDAKALGMAGESNMNFTPTKKEGRCRLFPHCPLGRSCPHAHPTKVCNEYPNCPKPPGTCEFLHPNEDEELMKEMERTREEFQKRKADLLAAKRKPVQTGIVLCKFGALCSNPSCPFGHPTPANEDAKVIDLMWCDKNLTCDNPECRKAHSSLSKIKEVKPISQKKAAPPPVEKSLEQCKFGTHCTNKRCKYRHARSHIMCREGANCTRIDCLFGHPINEDCRFGVNCKNIYCLFRHPPGRVLPEKKGAAPNSNVPTNERPFALPENAIIENAPPQTSFTHQEQDTEMN [L239D]
3,disrupting interaction strength,MSQEQYTENLKVIVAEKLAGIPNFNEDIKYVAEYIVLLIVNGGTVESVVDELASLFDSVSRDTLANVVQTAFFALEALQQGESAENIVSKIRMMNAQSLGQSDIAQQQQQQQQQQQPDIAQQQPQQQPQQQPQQQPQQQPQQQPQQQPQQQPQQQPQLQPLQPQLGTQNAMQTDAPATPSPISAFSGVVNAAAPPQFAPVDNSQRFTQRGGGAVGKNRRGGRGGNRGGRNNNSTRFNPIAKALGMAGESNMNFTPTKKEGRCRLFPHCPLGRSCPHAHPTKVCNEYPNCPKPPGTCEFLHPNEDEELMKEMERTREEFQKRKADLLAAKRKPVQTGIVLCKFGALCSNPSCPFGHPTPANEDAKVIDLMWCDKNLTCDNPECRKAHSSLSKIKEVKPISQKKAAPPPVEKSLEQCKFGTHCTNKRCKYRHARSHIMCREGANCTRIDCLFGHPINEDCRFGVNCKNIYCLFRHPPGRVLPEKKGAAPNSNVPTNERPFALPENAIIENAPPQTSFTHQEQDTEMN [L239I]
4,disrupting interaction strength,MSQEQYTENLKVIVAEKLAGIPNFNEDIKYVAEYIVLLIVNGGTVESVVDELASLFDSVSRDTLANVVQTAFFALEALQQGESAENIVSKIRMMNAQSLGQSDIAQQQQQQQQQQQPDIAQQQPQQQPQQQPQQQPQQQPQQQPQQQPQQQPQQQPQLQPLQPQLGTQNAMQTDAPATPSPISAFSGVVNAAAPPQFAPVDNSQRFTQRGGGAVGKNRRGGRGGNRGGRNNNSTRFNPEAKALGMAGESNMNFTPTKKEGRCRLFPHCPLGRSCPHAHPTKVCNEYPNCPKPPGTCEFLHPNEDEELMKEMERTREEFQKRKADLLAAKRKPVQTGIVLCKFGALCSNPSCPFGHPTPANEDAKVIDLMWCDKNLTCDNPECRKAHSSLSKIKEVKPISQKKAAPPPVEKSLEQCKFGTHCTNKRCKYRHARSHIMCREGANCTRIDCLFGHPINEDCRFGVNCKNIYCLFRHPPGRVLPEKKGAAPNSNVPTNERPFALPENAIIENAPPQTSFTHQEQDTEMN [L239E]
5,disrupting interaction,MSQEQYTENLKVIVAEKLAGIPNFNEDIKYVAEYIVLLIVNGGTVESVVDELASLFDSVSRDTLANVVQTAFFALEALQQGESAENIVSKIRMMNAQSLGQSDIAQQQQQQQQQQQPDIAQQQPQQQPQQQPQQQPQQQPQQQPQQQPQQQPQQQPQLQPLQPQLGTQNAMQTDAPATPSPISAFSGVVNAAAPPQFAPVDNSQRFTQRGGGAVGKNRRGGRGGNRGGRNNNSTRFNAAAKALGMAGESNMNFTPTKKEGRCRLFPHCPLGRSCPHAHPTKVCNEYPNCPKPPGTCEFLHPNEDEELMKEMERTREEFQKRKADLLAAKRKPVQTGIVLCKFGALCSNPSCPFGHPTPANEDAKVIDLMWCDKNLTCDNPECRKAHSSLSKIKEVKPISQKKAAPPPVEKSLEQCKFGTHCTNKRCKYRHARSHIMCREGANCTRIDCLFGHPINEDCRFGVNCKNIYCLFRHPPGRVLPEKKGAAPNSNVPTNERPFALPENAIIENAPPQTSFTHQEQDTEMN [P238A;L239A]
